By Kd is commonly meant the concentration at which binding is half-saturated.

Residue numbers refer to the chain shown, from its start. Numbers in names are those of the source.

T1: cynomolgus monkey FcγRIIIaS extracellular domain, His-tagged (cynomolgus monkey, UniProt Q8SPW2 21-206 at identity 1.00))
T1 construct: also called cyno FcγRIIIaS; cynoFcgRIIIaS
T1 chain: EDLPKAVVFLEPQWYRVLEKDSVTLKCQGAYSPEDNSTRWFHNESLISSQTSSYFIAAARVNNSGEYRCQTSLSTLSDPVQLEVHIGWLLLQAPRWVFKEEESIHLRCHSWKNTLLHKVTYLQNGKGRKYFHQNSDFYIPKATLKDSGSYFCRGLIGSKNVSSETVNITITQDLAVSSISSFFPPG

T2: cynomolgus monkey FcγRIIb extracellular domain, His-tagged (cynomolgus monkey)
T2 construct: also called cyno FcγRIIb; cynoFcgRIIb
T2 chain: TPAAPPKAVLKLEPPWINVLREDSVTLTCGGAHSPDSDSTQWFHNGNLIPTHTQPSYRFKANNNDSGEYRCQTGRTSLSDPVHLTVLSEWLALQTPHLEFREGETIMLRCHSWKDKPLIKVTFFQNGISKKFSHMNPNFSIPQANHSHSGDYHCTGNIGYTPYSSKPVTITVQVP

T3: human FcγRIIb extracellular domain with C-terminal His-tag (human, UniProt P31994 43-217)
T3 construct: also called human FcgRIIb
T3 sequence: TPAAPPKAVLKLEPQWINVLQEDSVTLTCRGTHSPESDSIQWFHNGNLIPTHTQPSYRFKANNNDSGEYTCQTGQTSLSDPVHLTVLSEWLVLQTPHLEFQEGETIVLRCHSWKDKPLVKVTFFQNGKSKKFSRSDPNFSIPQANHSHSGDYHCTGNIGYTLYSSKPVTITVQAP

T4: human FcγRIIaR extracellular domain with C-terminal His-tag (human, UniProt P12318 34-217)
T4 construct: also called human FcgRIIaR; FcγRIIa (type R)
T4 chain: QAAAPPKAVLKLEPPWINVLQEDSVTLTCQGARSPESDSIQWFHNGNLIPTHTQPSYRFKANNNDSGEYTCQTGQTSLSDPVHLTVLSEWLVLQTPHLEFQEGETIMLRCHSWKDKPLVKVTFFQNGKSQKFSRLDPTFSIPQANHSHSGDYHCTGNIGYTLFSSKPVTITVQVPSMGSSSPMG

T5: human FcγRIIaH extracellular domain with C-terminal His-tag (human, UniProt P12318 34-217)
T5 construct: also called human FcgRIIaH; FcγRIIa (type H)
T5 sequence: T4 chain with R134H

T6: cynomolgus monkey FcγRIIIaS extracellular domain with C-terminal His-tag (cynomolgus monkey, UniProt Q8SPW2 21-206 at identity 1.00))
T6 construct: also called cyno FcgRIIIaS; cynoFcγRIIIaS
T6 chain: T1 chain

T7: cynomolgus monkey FcγRIIa2 extracellular domain with C-terminal His-tag (cynomolgus monkey)
T7 construct: also called cyno FcgRIIa2; cynoFcγRIIa2
T7 chain: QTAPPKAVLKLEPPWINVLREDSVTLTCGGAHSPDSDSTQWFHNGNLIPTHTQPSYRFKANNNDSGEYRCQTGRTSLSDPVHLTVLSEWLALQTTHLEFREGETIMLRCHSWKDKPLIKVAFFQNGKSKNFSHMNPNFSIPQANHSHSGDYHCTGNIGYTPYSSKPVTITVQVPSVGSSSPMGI

T8: human FcγRIIb extracellular domain with C-terminal His-tag (human, UniProt P31994 43-217)
T8 construct: also called human FcgRIIb
T8 sequence: T3 sequence

B1: M103205H795-MY445/M103202L889-SK1 (antibody, human IgG1, kappa, name in EU numbering)
heavy: QVTLKESGPVLVKPTETLTLTCTVSGIDLSHDDISWVRQAPGKGLEWVGIISYAGSTYYASWAKGRLTISKDTSKNQVVLTMTNMDPVDTATYYCARGVPAYSHGGDLWGQGTLVTVSSASTKGPSVFPLAPSSKSTSGGTAALGCLVKDYFPEPVTVSWNSGALTSGVHTFPAVLQSSGLYSLSSVVTVPSSSLGTQTYICNVNHKPSNTKVDKKVEPKSCDKTHTCPPCPAGELLTGPSVFLFPPKPKDTLMISRTPEVTCVVVDVSDEDPEVKFNWYVDGVEVHNAKTKPREEQYNSTYRVVSVLTVLHQDWLNGKEYKCKVSNKALPKPIEKTISKAKGQPREPQVYTLPPSREEMTKNQVSLTCLVKGFYPSDIAVEWESNGQPENNYKTTPPVLDSDGSFFLYSKLTVDKSRWQQGNVFSCSVMHEALHNHYTQKSLSLSP
light: DIVMTQSPATLSLSPGERATLSCTSSQSVYHANWLSWFQQKPGQPPKLLIYWASTLAYGVPSRFSGSGSGTDFTLTISSLQPEDAATYYCAGGYGGGRYAFGQGTKVEIKRTVAAPSVFIFPPSDEQLKSGTASVVCLLNNFYPREAKVQWKVDNALQSGNSQESVTEQDSKDSTYSLSSTLTLSKADYEKHKVYACEVTHQGLSSPVTKSFNRGEC
B2: M103205H795-MY448/M103202L889-SK1 (antibody, human IgG1, kappa, name in EU numbering)
heavy: B1 heavy with G234K
light: B1 light
B3: M103205H795-MY446/M103202L889-SK1 (antibody, human IgG1, kappa, name in EU numbering)
heavy: B1 heavy with G234H
light: B1 light
B4: MS1032LO19-SG1074 (antibody, name in EU numbering)
heavy: QVQLVESGGGLVQPGGSLRLSCAVSGIDLSHDDISWVRQAPGKGLEWVSIISYAGSTYYASWAKGRLTISKDTSKNQVVLTMTNMDPVDTATYYCARGVPAYSHGGDLWGQGTLVTVSSASTKGPSVFPLAPSSKSTSGGTAALGCLVKDYFPEPVTVSWNSGALTSGVHTFPAVLQSSGLYSLSSVVTVPSSSLGTQTYICNVNHKPSNTKVDKKVEPKSCDKTHTCPPCPAPELLNGPSVFLFPPKPKDTLMISRTPEVTCVVVDVSDEDPEVKFNWYVDGVEVHNAKTKPREELYNSTYRVVSVLTVLHRDWLNGKEYKCKVSNTALPKPIEKTISKAKGQRREPQVYTLPPSREEMTKNQVSLTCLVKGFYPSDIAVEWESNGQPENNYKTTPPVLDSDGSFFLYSKLTVDKSRWQQGNVFSCSVLHEALHAHTTRKELSLSP
light: B1 light with S25T, A32E
notes: tied to rows r15/r33 by row order only; also called MS103240H795-SG1074
B5: MS1032LO06-SG1029 (antibody, human IgG1, kappa)
heavy: B1 heavy with G234P, T238N, Q297L, Q313R, D415K, N436A
light: B1 light
notes: tied to rows r9/r27 by row order only; also called MS103205H795-SG1029; copies: 2 + 2
B6: MS1032LO06-SG1031 (antibody, human IgG1, kappa, name in EU numbering)
heavy: B1 heavy with G234P, T238N, Q313R, D415K, N436A
light: B1 light
notes: tied to rows r10/r28 by row order only; also called MS103205H795-SG1031; copies: 2 + 2
B7: MS1032LO06-SG1016 (antibody, human IgG1, kappa)
heavy: B1 heavy with G234P, T238N, D270E, Q313R, P398M, D401K, N436A
light: B1 light
notes: tied to rows r8/r26 by row order only; also called MS103205H795-SG1016; copies: 2 + 2
B8: MS1032LO19-SG1079 (antibody)
heavy: B4 heavy with T328K, R345P, D415K, L430M, T438Y
light: B1 light with S25T, A32E
notes: tied to rows r17/r35 by row order only; also called MS103240H795-SG1079; copies: 2 + 2
B9: M103205H795-MY524 / M103202L889-SK1 (antibody, human IgG1, kappa, name in EU numbering)
heavy: B1 heavy with A233G, G234P, Q297L
light: B1 light
B10: M103205H795-MY389 / M103202L889-SK1 (antibody, human IgG1, kappa, name in EU numbering)
heavy: B1 heavy with G234P, S241L
light: B1 light
B11: M103205H795-MY516 / M103202L889-SK1 (antibody)
heavy: B1 heavy with G234P, S241V, Q297L, S300L
light: B1 light
notes: 'Q235L' copied as printed, probably Q295L
B12: MS1032LO06-MY101 (antibody, human IgG1, kappa)
heavy: B1 heavy with G234P, T238N, D270E, P398M
light: B1 light
notes: also called M103205H795-MY101; copies: 2 + 2

The first assay concerns the target T1, cynomolgus monkey FcγRIIIaS …. Put plainly: SPR (BIACORE), antibody captured, FcγR analyte, 25 C; KD of SG1 divided by KD of variant. The method, then:
(§1) The kinetic analysis of interactions between these antibodies and FcγR was carried out using BIACORE® T200 or BIACORE® 4000 (GE Healthcare). HBS-EP+ (GE Healthcare) was used as the running buffer, and the measurement temperature was set to 25° C. […] After the measurement, the antibody captured on the chip was washed off by allowing reaction with 10 mM glycine-HCl, pH1.5 and 25 mM NaOH so that the chip was regenerated and used repeatedly. The sensorgrams obtained as measurement results were analyzed by the 1:1 Langmuir binding model using the BIACORE® Evaluation Software to calculate the binding rate constant ka (L/mol/s) and dissociation rate constant kd (1/s), and the dissociation constant KD (mol/L) was calculated from these values. […] Regarding such interactions, KD values were calculated using the following 1:1 binding model described in BIACORE® T100 Software Handbook BR1006-48 Edition AE.
For orientation: Surface plasmon resonance follows binding to a sensor surface in real time, without labels.
Consider B1, for which the “KD fold (SG1 = 1)” value was found to be 0.2 fold.

Regarding B2, the “KD fold (SG1 = 1)” value is 0.2 fold.

Turning to B3, the “KD fold (SG1 = 1)” value was 0.2 fold.

The target in another assay is T2, cynomolgus monkey FcγRIIb extracellular …. The description is as above. The method, then:
as §1
In the case of B1, the “KD fold (SG1 = 1)” value worked out at 1.3 fold.

Consider B2, for which the “KD fold (SG1 = 1)” value was 0.8 fold.

As to B3, the “KD fold (SG1 = 1)” value is 2.5 fold.

The next assay has as its target T3, human FcγRIIb extracellular domain with …. The assay can be described thus: SPR, KD(parent SG1)/KD(variant).
As for B4, the “KD fold (SG1 = 1)” value came out at 10.7 fold.

Take B5: the “KD fold (SG1 = 1)” value came out at 5.9 fold.

On to B6, for which the “KD fold (SG1 = 1)” value was 3.2 fold.

B7: the “KD fold (SG1 = 1)” value came to 0.7 fold.

The next assay addresses T4, human FcγRIIaR extracellular domain …. The assay can be described thus: SPR, KD(parent SG1)/KD(variant).
As to B4, the “KD fold (SG1 = 1)” value was determined as 1.1 fold.

As for B5, the “KD fold (SG1 = 1)” value came to 0.6 fold.

Take B6: the “KD fold (SG1 = 1)” value was 1.7 fold.

Regarding B8, the “KD fold (SG1 = 1)” value was 0.1 fold.

B7: the “KD fold (SG1 = 1)” value was determined as 1.2 fold.

The target in another assay is T5, human FcγRIIaH extracellular domain …. Put plainly: SPR, KD(parent SG1)/KD(variant).
Regarding B4, the “KD fold (SG1 = 1)” value turned out to be 1.2 fold.

With B5, the “KD fold (SG1 = 1)” value worked out at 1.5 fold.

B7: the “KD fold (SG1 = 1)” value was 1.8 fold.

A further assay addresses T6, cynomolgus monkey FcγRIIIaS …. The assay can be described thus: SPR, KD(parent SG1)/KD(variant).
In the case of B4, the “KD fold (SG1 = 1)” value was 0.19 fold.

On to B5, for which the “KD fold (SG1 = 1)” value was 0.05 fold.

On to B6, for which the “KD fold (SG1 = 1)” value was 0.05 fold.

Regarding B8, the “KD fold (SG1 = 1)” value turned out to be 0.04 fold.

B7: the “KD fold (SG1 = 1)” value amounted to 0.17 fold.

The target of a further assay is T7, cynomolgus monkey FcγRIIa2 …. The assay can be described thus: SPR (Biacore), antibody captured, FcgR as analyte. The method, then:
as §1
On to B9, for which the Kd turned out to be 1100 nM.

Consider B10, for which the Kd was 1600 nM.

B11 gave a Kd of 1300 nM.

The target of another assay is T8, human FcγRIIb extracellular domain with …. Put plainly: SPR (Biacore), KD of SG1 divided by KD of variant. On the procedure:
as §1
In the case of B9, the “KD fold (SG1 = 1)” value came out at 4.6 fold.

In another assay the target is T6, cynomolgus monkey FcγRIIIaS …. Put plainly: SPR, antibody captured, FcγR analyte. On the procedure:
as §1
Molecule B12 registered a Kd of 3200 nM.

These data come from patent US20250076311A1 (Chugai, published 2025).
